Patent publication US20230416363A1

Biological target: mouse PD-1 expressed on cells (mouse) (UniProt Q02242)
Test: cell-based or functional assay

Chain of mouse PD-1 expressed on cells (mouse) (Q02242 25-288): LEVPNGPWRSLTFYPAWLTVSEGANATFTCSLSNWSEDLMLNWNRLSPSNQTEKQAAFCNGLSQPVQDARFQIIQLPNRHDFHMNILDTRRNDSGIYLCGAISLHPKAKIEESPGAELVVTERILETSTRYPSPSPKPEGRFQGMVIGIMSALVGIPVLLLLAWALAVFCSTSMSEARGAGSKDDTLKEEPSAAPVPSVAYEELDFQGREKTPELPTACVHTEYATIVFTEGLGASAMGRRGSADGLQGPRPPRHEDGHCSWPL

B1: RMP1-14 (antibody, from another filing, V domains shown)
VH: EVQLQESGPGLVKPSQSLSLTCSVTGYSITSSYRWNWIRKFPGNRLEWMGYINSAGISNYNPSLKRRISITRDTSKNQFFLQVNSVTTEDAATYYCARSDNMGTTPFTYWGQGTLVTVSS
VL: DIVMTQGTLPNPVPSGESVSITCRSSKSLLYSDGKTYLNWYLQRPGQSPQLLIYWMSTRASGVSDRFSGSGSGTDFTLKISGVEAEDVGIYYCQQGLEFPTFGGGTKLELK
Q: Which IC 50, Promega assay does the source give for B1 here?
A: The IC 50, Promega assay was 5.59 µg/mL.
